This data set addresses Fur (Salmonella enterica serovar Typhimurium …, UniProt A0A0H3NJ13 1-150). As to the kind of experiment: fluorescence anisotropy. Background: Polarisation of emitted light reports the rotation of a fluorescent probe.

B1: furbox (dsDNA)
DNA 1: GGGGATAATGATAATCATTATCGGG
DNA 2: CCCGATAATGATTATCATTATCCCC
In general, Kd refers to the free concentration of one partner at which half of the binding sites on the other are occupied at equilibrium, for simple one-to-one binding. High values mean lower affinity, low ones higher affinity. Take B1: the Kd is 56 nM.

These data come from article PMC6420079.
